Where a chain is given by its changes, count along the chain named.
Experiments:
[1] = target: T1, CD73-ND-his (human, UniProt P21589 27-317); assay: ELISA, high plateau value (OD 450 nm)
T1 construct: Biotinylated and captured on streptavidin in the ELISA
T1 sequence: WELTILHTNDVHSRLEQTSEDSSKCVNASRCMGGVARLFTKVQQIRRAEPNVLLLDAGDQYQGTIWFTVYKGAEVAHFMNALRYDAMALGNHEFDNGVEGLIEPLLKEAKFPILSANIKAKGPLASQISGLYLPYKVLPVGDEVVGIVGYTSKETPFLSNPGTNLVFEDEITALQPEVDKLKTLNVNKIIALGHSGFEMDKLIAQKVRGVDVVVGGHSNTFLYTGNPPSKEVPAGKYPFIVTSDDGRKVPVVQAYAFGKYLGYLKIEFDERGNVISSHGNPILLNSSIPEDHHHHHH
Protocol: (§1) The ELISA plates were coated with SA protein diluted to 1.5 μg/mL in coating buffer (50 mM carbonate coating buffer, pH 9.6) and incubated overnight at 4° C. The supernatant was discarded, and the plates were washed three times with PBST. Then, 5% skimmed milk powder prepared with PBS was added for blocking and the plates were incubated for 2 h at 37° C. After washing the plates once with PBST, CD73-biotin protein (prepared by biotinylating CD73-His protein according to the EZ-Link NHS-Biotin Reagent instructions) was diluted to 0.5 μg/mL and added at 100 μL/well for incubation at room temperature for 1 h. The plates were washed three times with PBST, and the prepared murine-derived monoclonal antibodies against human CD73 were serially diluted with 1% BSA buffer prepared with PBST and added to the ELISA plates at 100 μl/well. The plates were incubated at 37° C. for 1 h. After washing the plates three times with PBST, HRP-labeled goat anti-mouse IgG secondary antibody was added and the plates were incubated for 30 min at 37° C. After washing the plates three times with PBST, the residual droplets were patted dry on absorbent paper as much as possible. Then, 100 μl of TMB color developing solution was added to each well, and the plates were incubated in the dark at room temperature for 5 min for color development. Subsequently, 50 μl of 2M H₂SO₄ stop solution was added to each well to terminate the substrate reaction. The OD values were read at 450 nm using a multimode microplate reader to analyze the binding ability of the tested antibodies to the target antigen human CD73-His.
(§2) Referring to the experimental method in Example 3, the affinity of 48A11-HuV33 for various mutant proteins of CD73-ND was determined. The SA protein was diluted to 1 μg/mL for coating the ELISA plates, and the biotinylated CD73 protein (CD73-biotin) was used at a concentration of 0.1 μg/mL.

[2] = target: T1, CD73-ND-his; assay: ELISA; decline multiple of Top against CD73-ND
Protocol: as §1, §2

[3] = target: T2, CD73-ND-P139A (human, UniProt P21589 27-317); assay: ELISA; decline multiple of Top against CD73-ND
T2 construct: Alanine mutant of CD73-ND
T2 sequence: T1 sequence with P139A
Protocol: as §1, §2

[4] = target: T3, CD73-ND-L184A (human, UniProt P21589 27-317); assay: ELISA; decline multiple of Top against CD73-ND
T3 construct: Alanine mutant of CD73-ND
T3 sequence: T1 sequence with L184A
Protocol: as §1, §2

[5] = target: T4, CD73-ND-V140A (human, UniProt P21589 27-317); assay: ELISA; decline multiple of Top against CD73-ND
T4 construct: Alanine mutant of CD73-ND
T4 sequence: T1 sequence with V140A
Protocol: as §1, §2

[6] = target: T5, CD73-ND-D142A (human, UniProt P21589 27-317); assay: ELISA; decline multiple of Top against CD73-ND
T5 construct: Alanine mutant of CD73-ND
T5 sequence: T1 sequence with D142A
Protocol: as §1, §2

[7] = target: T6, CD73-ND-T183A (human, UniProt P21589 27-317); assay: ELISA, biotinylated antigen on streptavidin plate
T6 construct: Alanine mutant of CD73-ND
T6 sequence: T1 sequence with T183A
Protocol: as §1, §2

B1: 48A11-HuV33 (antibody, human IgG4, V domains shown)
VH: QVQLVQSGAEVKKPGASVKVSCKASGYTFTSYWMHWVRQAPGQGLEWIGEINPSIGRTNYNEKFKSRVTLTRDTSTSTAYMELSSLRSEDTAVYYCARRVYGTMDYWGQGTLVTVSS
VL: DIQMTQSPSSLSASVGDRVTITCKASQDINSYLSWFQQKPGKSPKLLIYRANIWVDGVPSRFSGSGSGQDYTFTISSLQPEDIATYYCLQYDELYTFGQGTKVEIK
notes: Humanized
- Top [1]: 1.94
- Ratio(Top) [2]: 1 fold
- Ratio(Top) [3]: 2.3 fold
- Ratio(Top) [4]: 1.2 fold
- Ratio(Top) [5]: 1 fold
- Ratio(Top) [6]: 1.1 fold
- EC50 [7]: 0.159 nM

Reference: patent US20250066499A1 (SUNSHINE GUOJIAN PHARMACEUTICAL SHANGHAI, published 2025)
